# Test results from US20230303689A1 (published 2023).
# B1: murine mAb 317 (antibody, V domains shown)
# VH: QVQLKESGPGLVAPSKNLSITCTVSGFSLTSYGVHWIRQPPGKGLEWLGVIWAGGSTNYNSALMSRLSISKDNSRSQVFLRMNSLQTDDTAMYYCARAYGNYWYIDVWGAGTTVTVSS
# VL: DIVMTQTPKFLLVSAGDRVTITCKASQSVSNDVAWYQQKPGQSPKLLINYAFHRFTGVPDRFTGSGYGTDFIFTISTVQAEDLAVYFCHQAYSSPYTFGGGTKLEMK
# Molecular target: human PD-1 expressed on cells (HuT78/PD-1, NK92MI/PD-1) (human, UniProt Q15116 25-288)
# Assay: FACS binding (MFI)
# human PD-1 expressed on cells (HuT78/PD-1, NK92MI/PD-1), sequence (Q15116 25-288): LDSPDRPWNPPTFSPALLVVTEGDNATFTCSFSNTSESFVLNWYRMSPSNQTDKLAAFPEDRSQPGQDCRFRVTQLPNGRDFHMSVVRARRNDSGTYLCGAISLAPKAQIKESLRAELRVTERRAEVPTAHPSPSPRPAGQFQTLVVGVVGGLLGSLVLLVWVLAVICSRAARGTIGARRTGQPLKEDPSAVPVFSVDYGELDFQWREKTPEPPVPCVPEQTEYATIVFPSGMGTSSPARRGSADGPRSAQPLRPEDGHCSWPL
binder,measurement,value
B1,EC50,0.105 mg/L
